Substitutions are numbered along the chain they refer to. In names and notes the source's numbering stands. Several values for one entry are separate records, joined by “and”; a condition that tells them apart may be missing. Identical values can stand only once.

For data set [1], the target named is CLPB-NBD (NBD-only variant, N-terminal ANK domain truncated) (human) (UniProt Q9H078). Nature of the data set: cryo-EM 2D classification.
The next data set concerns the target CLPB-NBD^E425Q (human) (UniProt Q9H078). Nature of the data set: cryo-EM structure.
Data set [2] has as its target CLPB^isoform1 (isoform-1 of CLPB) (human). Nature of the data set: negative-stain EM + cryo-EM 2D classification.
The data set “SEC” deals with the molecule itself. Nature of the data set: SEC.
Data set [3] deals with the molecule itself. Nature of the data set: cryo-EM 2D classification.
Data set [4] deals with the molecule itself. Nature of the data set: cryo-EM structure.
Data set [5] concerns the molecule itself. Nature of the data set: cryo-EM structure. This is another data set of the same source.
Data set [6] concerns the molecule itself. Nature of the data set: SEC + other: negative-stain EM.

Consider “CLPB-NBD (NBD-only variant, N-terminal ANK domain truncated) (from UniProt Q9H078-2 1-677) (domain or fragment)”, for which the stoichiometry N in data set [1] was 6 and 7. As for “CLPB-NBD^E425Q (from UniProt Q9H078-2 1-677) (domain or fragment)”, the stoichiometry N with CLPB-NBD^E425Q (human) is 6 and 7 and 9. “CLPB^isoform1 (isoform-1 of CLPB) (enzyme)”: the stoichiometry N in data set [2] is 14.

B1: CLPB^Δ201-232 (insertion between AM2 and AM3 deleted) (enzyme)
chain: YSKSPSNKDAALLEAARANNMQEVSRLLSEGADVNAKHRLGWTALMVAAINRNNSVVQVLLAAGADPNLGDDFSSFKGCTALHYAVLADDYRTVKELLDGGANPLQRNEMGHTPLDYAREGEVMKLLRTSEAKYQEKQRKREAEERRRFPLEQRLKEHIIGQESAIATVGAAIRRKENGWYDEEHPLVFLFLGSSGIGKTELAKQTAKYMHKDAKKGFIRLDMSEFQERHEVAKFIGSPPGYVGHEEGGQLTKKLKQCPNAVVLFDEVDKAHPDVLTIMLQLFDEGRLTDGKGKTIDCKDAIFIMTSNVASDEIAQHALQLRQEALEMSRNRIAENLGDVQISDKITISKNFKENVIRPILKAHFRRDEFLGRINEIVYFLPFCHSELIQLVNKELNFWAKRAKQRHNITLLWDREVADVLVDGYNVHYGARSIKHEVERRVVNQLAAAYEQDLLPGGCTLRITVEDSDKQLLKSPELPSPQAEKRLPKLRLEIIDKDSKTRRLDIRAPLHPEKVCNTI
For B1, in “SEC”, the binding result is “binds”.

B2: CLPB-N127 (human CLPB isoform 2 starting from the PARL cleavage site), wild type (enzyme)
chain: YSKSPSNKDAALLEAARANNMQEVSRLLSEGADVNAKHRLGWTALMVAAINRNNSVVQVLLAAGADPNLGDDFSSVYKTAKEQGIHSLEVLITREDDFNNRLNNRASFKGCTALHYAVLADDYRTVKELLDGGANPLQRNEMGHTPLDYAREGEVMKLLRTSEAKYQEKQRKREAEERRRFPLEQRLKEHIIGQESAIATVGAAIRRKENGWYDEEHPLVFLFLGSSGIGKTELAKQTAKYMHKDAKKGFIRLDMSEFQERHEVAKFIGSPPGYVGHEEGGQLTKKLKQCPNAVVLFDEVDKAHPDVLTIMLQLFDEGRLTDGKGKTIDCKDAIFIMTSNVASDEIAQHALQLRQEALEMSRNRIAENLGDVQISDKITISKNFKENVIRPILKAHFRRDEFLGRINEIVYFLPFCHSELIQLVNKELNFWAKRAKQRHNITLLWDREVADVLVDGYNVHYGARSIKHEVERRVVNQLAAAYEQDLLPGGCTLRITVEDSDKQLLKSPELPSPQAEKRLPKLRLEIIDKDSKTRRLDIRAPLHPEKVCNTI
For B2, the entries for the “stoichiometry N” value (in data set [3]; in the data set “cryo-EM structure [4]”) were 12 and 14, respectively.

B3: CLPB^E425Q (Walker B mutant of CLPB-N127, isoform 2) (enzyme)
chain: B2 chain with E299Q
B3: the “stoichiometry N” value in “cryo-EM structure [5]” was determined as 12.

B4: CLPB^R227E (enzyme)
chain: B2 chain with R101E
As to B4, the binding result in data set [6] is on record as “binds”.

B5: CLPB^R178E (enzyme)
chain: B2 chain with R52E
Turning to B5, the binding result in data set [6] is listed as “binds”.

(Values after doi:10.1101/2022.10.28.514188 (bioRxiv, 2022).)
